Data as given in patent CN112592405A (BIOSION BIO TECH NANJING CO LTD, dated 2021).

T1: 人BCMA-His抗原 (ACRO, Cat#BCA-H522y) (human, UniProt Q02223 1-54)
T1 construct: Bought recombinant protein; also called human BCMA-His; 人BCMA蛋白; not shown: His tag
T1 sequence (looked up): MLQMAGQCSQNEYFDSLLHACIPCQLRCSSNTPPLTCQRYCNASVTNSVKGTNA

B1: BCMA Benchmark1 (antibody sequence of GSK2857916) (antibody, human IgG1, kappa, V domains shown)
VH: QVQLVQSGAEVKKPGSSVKVSCKASGGTFSNYWMHWVRQAPGQGLEWMGATYRGHSDTYYNQKFKGRVTITADKSTSTAYMELSSLRSEDTAVYYCARGAIYDGYDVLDNWGQGTLVTVSS
VL: DIQMTQSPSSLSASVGDRVTITCSASQDISNYLNWYQQKPGKAPKLLIYYTSNLHSGVPSRFSGSGSGTDFTLTISSLQPEDFATYYCQQYRKLPWTFGQGTKLEIKR
notes: also called BCMA-BM1
B2: BCMA-VHH-2B11纳米抗体 (抗人BCMA纳米抗体, 含有Fc tag) (Fc fusion)
chain: QVQLVESGGGLVQAGGSLRLSCAASGGTFNNDNVGWFRQAPGKEREFVAVISWRGDGTDYADSVKGRFTISRDYAKKMVYLQMNSLQPKDTAVYYCAVGDGSRWRGAYAYWGQGTRVTVSS
notes: Expressed in Expi293F cells and purified on Protein A/G. It was tested as VHH with an Fc tag, about 35 kDa on SDS-PAGE; also called anti-human BCMA nanobody; not shown: Fc tag

Target: T1, 人BCMA-His抗原 (ACRO, Cat#BCA-H522y)
Test: indirect ELISA, plate coated with human BCMA-His at 2 μg/ml, detection with HRP goat anti-human Fcγ

Binder | binding result
B1 | binds
B2 | binds
